Consider four molecules from patent publication US9434785.

The target of test [1] is T1, recombinant human OX40L (extracellular domain with FLAG peptide motif and isoleucine zipper motif) (human, UniProt P23510 51-183, biotinylated in the HTRF assays (sites not given)).
T1 sequence (looked up): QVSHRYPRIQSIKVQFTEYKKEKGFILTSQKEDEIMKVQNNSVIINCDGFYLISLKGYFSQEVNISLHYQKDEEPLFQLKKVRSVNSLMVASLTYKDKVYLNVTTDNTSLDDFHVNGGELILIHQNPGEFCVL
Briefly: cell-based or functional assay.

The target of test [2] is T1, recombinant human OX40L (extracellular …). The test is described as follows: HTRF ligand/receptor neutralisation; competitor OX40RFc-AF647 on biotinylated hOX40L; mean of three experiments, SEM +/-0.04. Here is the method:
(§1) Profiling of Fully Human Recombinant Anti-OX40L Antibodies in HTRF Ligand/Receptor Neutralisation Assay In order to determine whether recombinantly expressed fully human purified IgG inhibit human OX40L binding to OX40RFc the following method was carried out. Fully human purified IgG or other inhibitor were tested in order to establish the clone potency as measured by IC$50$ values in the assay. Antibodies recombinantly expressed and purified were titrated by diluting in HTRF assay buffer and 5 μL of this titration transferred to a white 384 well low volume non-binding surface polystyrene plate (Greiner). Biotinylated OX40L was diluted in HTRF assay buffer to a working concentration of 2.4 nM and 5 μL added. OX40RFc directly labelled with AF647 was then diluted to working concentration of 10 nM and 5 μL added. […] Plates were covered, protected from light and incubated at room temperature for 3 hrs prior to reading time resolved fluorescence at 620 nm and 665 nm emission wavelengths using an EnVision plate reader (Perkin Elmer). Data were analysed by calculating delta F as described in Equation 4 and percentage of receptor for each sample according to Equation 5 or in some cases Equation 6. IC$50$ values were determined using GraphPad Prism software by curve fitting using a four-parameter logistic equation (Equation 7) (FIG. 1).
(TR-FRET usually uses a lanthanide donor and a delayed reading to cut background.)

Test [3] has the same target. The test is described as follows: SPR (ProteOn XPR36), apparent affinity, antibody captured on anti-mouse IgG, hOX40L at 256 nM, 1:1 model, 25 C. As to the method: SPR analysis was carried out using the ProteOn™ XPR36 Array System (BioRad). Anti-mouse IgG (GE Healthcare BR-1008-38) was immobilised on a GLM biosensor surface using amine coupling, the surface was then blocked using 1 M ethanolamine. Test antibodies were captured on this surface and recombinant hOX40L (human and rhesus) were used at a single concentration of 256 nM, binding sensorgrams were double referenced using a buffer injection (i.e. 0 nM) to remove baseline drift and injection artefacts. Apparent affinities for the OX40L-antibody interaction were determined using the 1:1 model inherent to the ProteOn XPR36 analysis software. The assay was run using HBS-EP (Teknova) as running buffer and carried out at 25° C.

Test [4] shares this target. The test is described as follows: HTRF ligand/receptor neutralisation; competitor OX40RFc-AF647 on biotinylated hOX40L; mean of three experiments, SEM +/-0.17. As to the method: as §1

B1: 2D10 (human) (antibody, human IgG4 S228P, kappa, V domains shown)
VH: EVQLVESGGGLVQPGGSLRLSCAASGFTFSNYAMNWVRQAPGKGLEWVSTISGSGGATRYADSVKGRFTISRDNSRNTVYLQMNSLRVEDTAVFYCTKDRLIMATVRGPYYYGMDVWGQGTTVTVSS
VL: DIQMTQSPSSLSASVGDRVTITCRASQSISSYLNWYQQKPGKAPNLLIYAASSLQSGVPSRFSGSGSETDFTLTISSLQPEDFATYYCQQSHSVSFTFGPGTKVDIKR
notes: Recombinant fully human IgG4-PE (Ser228Pro, Leu235Glu) with a human kappa light chain; also called 02D10; 2D10 IgG4PE
One may read the IC50 as the concentration needed to halve the response being measured. Turning to B1, in test [1], the “Primary T-cell Assay IC50 nM (recombinant OX40L induced IL2 release from primary isolated T-cells)” value stood at 0.81 nM. For the same molecule, the IC50 in test [2] is 0.75 nM.

B2: 9H04 (hybridoma) (antibody, V domains shown)
VH: QVQLVESGGGLVKPGGSLRLSCAASRFTLSDYYMTWIRQAPGKGLEWVSYISSSGNTIYYADSVKGRFTISRDNAKNSLYLQMNSLRAEDTAVYYCARDLSGSYWDYYYGMDVWGQGTTVTVSS
VL: AIQLTQSPSSLSTSVGDRVTIACRASQGINNALAWYQQKPGKAPKLLIYDASSLESGVPSRFSGSGSGTDFTLTISSLQPEDFATYYCQQFNSYPRTFGQGTKVEIK
notes: Murine/human chimeric antibody purified from hybridoma supernatant (human variable domains, mouse constant regions); also called 09H04
With B2, the Kd in test [3] turned out to be 5.3 nM.

B3: 10A07 (human) (antibody, V domains shown)
VH: EVQLVESGGVLVQPGGSLRLSCAASGFTFSSYIMTWVRQAPGKGLEWVSGISGSGGGTYYADSMKGRFTISRDNSKNTLYLQMNSLRVEDTAVYYCAKDRLGPITLVRGGYYYGMDVWGQGTTVTVSS
VL: DIQMTQSPSSLSASVGDRVTITCRASQSISDYLNWYQQKPGKAPKFLIYAASSLQSGVPSRFSGSGSGTDFTLTVSSLQPEDFATYYCQQSYSTPRTFGQGTRVEIK
notes: also called 10A7; mAb 10A7
Take B3: in test [1], the “Primary T-cell Assay IC50 nM (recombinant OX40L induced IL2 release from primary isolated T-cells)” value came to 0.83 nM. Also, the concentration for half-maximal inhibition (IC50) in test [4] stood at 1.2 nM.

B4: 19H01 (hybridoma) (antibody, V domains shown)
VH: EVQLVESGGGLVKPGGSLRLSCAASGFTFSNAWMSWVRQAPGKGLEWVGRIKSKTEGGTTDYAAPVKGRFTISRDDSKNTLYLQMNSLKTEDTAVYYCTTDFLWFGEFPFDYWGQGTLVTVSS
VL: DIQMTQSPSSLSASVGDRVTITCRASQGISNYLAWYQQKPGKIPKLLIYAASTLQSGVPSRFSGSGSGTDFTLTISSLQPEDVATYYCQKYNSAPRTFGQGTKVEIK
notes: Murine/human chimeric antibody purified from hybridoma supernatant (human variable domains, mouse constant regions)
As to B4, in test [3], the Kd came to 2.2 nM.
